To fix the notation:
B1: CPEB3 Ribozyme (parent)
chain: GGGGGCCACAGCAGAAGCGUUCACGUCGCGGCCCCUGUCAGAUUCUGGUGAAUCUGCGAAUUCUGCUGU

The variants in the series derive from B1. The series can be described thus: self-cleavage, relative activity (ratio to wild type); higher = more cleavage; co-transcriptional.
For GGGGACCACAGCAGAAGCGUUAACGUCGCGGCCCCUGUCAGAUUCUGGUGAAUCUGCGAAUUCUGCUGU [G5A C22A], the self-cleavage is 0.134.

In the case of GGGGACCACAGCAGAAGCGUUCACGUCGGGGCCCCUGUCAGAUUCUGGUGAAUCUGCGAAUUCUGCUGU [G5A C29G], the self-cleavage turned out to be 0.175.

With GGGGACCACAGCAGAAGCGUUCACGUCGCGGCCCCUGUCAGAUUCUGGUGAAUCUGCGAAUUCUUCUGU [G5A G65U], the self-cleavage came to 0.513.

As to GGGGACCACAGCAGAAGCGUUCACGUCGCGGCCCCUGUCAGAUUCUGGUGAAUCUGCGUAUUCUGCUGU [G5A A59U], the self-cleavage amounted to 0.415.

Regarding GGGGACCACAGCAGAAGCGUGCACGUCGCGGCCCCUGUCAGAUUCUGGUGAAUCUGCGAAUUCUGCUGU [G5A U21G], the self-cleavage stood at 0.161.

As to GGGGACCACAGCAGAAGCGUUCACGUCGCGGCCCCUAUCAGAUUCUGGUGAAUCUGCGAAUUCUGCUGU [G5A G37A], the self-cleavage amounted to 0.143.

Consider GGGGACCACAGCAGAAGCGUUCACGUCGCGGCCCCUGUCAGAUUCUGGUGAAUCUGCGAAUUGUGCUGU [G5A C63G], for which the self-cleavage was 0.448.

As for GGGGACCACAGCAGAACCGUUCACGUCGCGGCCCCUGUCAGAUUCUGGUGAAUCUGCGAAUUCUGCUGU [G5A G17C], the self-cleavage is 0.0889.

As for GGGGACCACAGCAGAAACGUUCACGUCGCGGCCCCUGUCAGAUUCUGGUGAAUCUGCGAAUUCUGCUGU [G5A G17A], the self-cleavage was 0.166.

Take GGGGACCACAGCAGAAGCGUUCACGUCGCCGCCCCUGUCAGAUUCUGGUGAAUCUGCGAAUUCUGCUGU [G5A G30C]: the self-cleavage was found to be 0.156.

With GGGGACCACAGCAGAAGCGUUCACGUCGCAGCCCCUGUCAGAUUCUGGUGAAUCUGCGAAUUCUGCUGU [G5A G30A], the self-cleavage was 0.156.

On to GGGUGCCACAGCAGAAGCGUUCACGUCGCGGCCCCUGUCAGAUUCUGGCGAAUCUGCGAAUUCUGCUGU [G4U U49C], for which the self-cleavage worked out at 0.758.

As to GGGGACCACAGCAGAAGCGUUCACGUCGCGGCCCCUGUCAGAUUCUGGUGAAUCUGCGAAUUCUGCUGU [G5A], the self-cleavage was 0.933.

Regarding GGGGCCCACAGCAGAAGCGUUCACGUCGCGGCCCCUGUCAGAUUCUGGUGAAUCUGCGAAUUCUGCUGU [G5C], the self-cleavage was 0.24.

Take GGGGACCACAGCAGAAGCUUUCACGUCGCGGCCCCUGUCAGAUUCUGGUGAAUCUGCGAAUUCUGCUGU [G5A G19U]: the self-cleavage was determined as 0.197.

As to GGGGACCACAGCAGAAGCGUUCACGUCGCGGCCCCCGUCAGAUUCUGGUGAAUCUGCGAAUUCUGCUGU [G5A U36C], the self-cleavage was determined as 0.831.

GGGGACCACAGCAGAAGCGUUCACGUCGCGGCCCCGGUCAGAUUCUGGUGAAUCUGCGAAUUCUGCUGU [G5A U36G]: the self-cleavage was 0.521.

On to GGGGACCACAACAGAAGCGUUCACGUCGCGGCCCCUGUCAGAUUCUGGUGAAUCUGCGAAUUCUGCUGU [G5A G11A], for which the self-cleavage was 0.785.

As to GGGGACCACAGCAGAAGAGUUCACGUCGCGGCCCCUGUCAGAUUCUGGUGAAUCUGCGAAUUCUGCUGU [G5A C18A], the self-cleavage is 0.12.

For the variant GGGUGCCACAGCAGAAGCGUUCACGUCGCGGCCCCUGUCAGAUUCUGGUGAAUCUGCGAAUUCUGCGGU [G4U U67G], the self-cleavage came out at 0.921.

For the variant GGGGACCACAGCAGACGCGUUCACGUCGCGGCCCCUGUCAGAUUCUGGUGAAUCUGCGAAUUCUGCUGU [G5A A16C], the self-cleavage was 0.134.

In the case of GGGGACCACAGCAGAAGCGUUCACGUCGCGGCCCCUGUCAGAUUCUGGUGAAUCUGCGAAUUCUGUUGU [G5A C66U], the self-cleavage was found to be 0.88.

On to GGGGACCACAGCAGAAGCGUUCACGUCGCGGCCCCUGUCUGAUUCUGGUGAAUCUGCGAAUUCUGCUGU [G5A A40U], for which the self-cleavage amounted to 0.719.

Regarding GGGGACCACAGCAGAAGCGUUCACGUCGCGGCCCCUGUCAGAUUCUGUUGAAUCUGCGAAUUCUGCUGU [G5A G48U], the self-cleavage was determined as 0.939.

On to GGGGACCACAGCAGAAGCGUUCACGUCGCGGCCCCUGUCAGAUUCUGCUGAAUCUGCGAAUUCUGCUGU [G5A G48C], for which the self-cleavage was determined as 0.956.

With GGGGCCCACAGCAGAAGCGUUCACGUCGCGGCCCCUGUCUGAUUCUGGUGAAUCUGCGAAUUCUGCUGU [G5C A40U], the self-cleavage stood at 0.134.

In the case of GGGGACCACAGCAGAAGCGUUCACGUCGCGGCCCCUGUUAGAUUCUGGUGAAUCUGCGAAUUCUGCUGU [G5A C39U], the self-cleavage was 0.653.

Turning to GGGGACCACAGCAGAAGCGUUCACGUCGCGGCCCCUGUCAGAUUCUGGUGAAACUGCGAAUUCUGCUGU [G5A U53A], the self-cleavage is 0.74.

Regarding GGGGACCACAGCAGAAGCGUUCACGUCGCGGCCCCUGUCAGAUUCUGGUGAACCUGCGAAUUCUGCUGU [G5A U53C], the self-cleavage came out at 0.584.

As for GGGGACCACAGCAGAAGCGUUCACGUCGCGGCCCCUGUCAGAUUCUGGCGAAUCUGCGAAUUCUGCUGU [G5A U49C], the self-cleavage stood at 0.969.

With GGGGACCACAGCAGAAGCGUUCACGUCGCGGCCCCUGUCAGAUUCUGGGGAAUCUGCGAAUUCUGCUGU [G5A U49G], the self-cleavage is 0.781.

Turning to GGGGACCACAGCAGAAGCGUUCACGUCGCGGCCCCUGUCAGAUUCUGGUUAAUCUGCGAAUUCUGCUGU [G5A G50U], the self-cleavage stood at 0.906.

On to GGGGACCACAGCAGAAGCGUUCACGUCGCGGCCUCUGUCAGAUUCUGGUGAAUCUGCGAAUUCUGCUGU [G5A C34U], for which the self-cleavage turned out to be 0.599.

In the case of GGGGACCACAGCAGAAGCGUUCACGUCGCGGCCACUGUCAGAUUCUGGUGAAUCUGCGAAUUCUGCUGU [G5A C34A], the self-cleavage was 0.203.

On to GGGGACCACAGCAGAAGCGUUCACGUCGCGGCCCCUGUCAGCUUCUGGUGAAUCUGCGAAUUCUGCUGU [G5A A42C], for which the self-cleavage was determined as 0.505.

In the case of GGGGCCCACAGCAGAAGCGUUCACGUCGCGGCCCCUGUCAGAUUCUGGUGAAUCUGCGAGUUCUGCUGU [G5C A60G], the self-cleavage came to 0.215.

For GGGGCCCACAGCAGAAGCGUUCACGUCGCGGCCCCUGUCAGAUUCUGGUGAAUCUGCGAUUUCUGCUGU [G5C A60U], the self-cleavage stood at 0.164.

Regarding GGGGCCCACAGCAGAAGCGUUCACGUCGCGGCCCCUGUCAGAUUCUGGUGAAUCUGCGACUUCUGCUGU [G5C A60C], the self-cleavage amounted to 0.171.

Turning to GGGGACCACAGCAGAAGCGUUCACGUCGCGGGCCCUGUCAGAUUCUGGUGAAUCUGCGAAUUCUGCUGU [G5A C32G], the self-cleavage came to 0.847.

For the origin of these results see the RNAGym collection of RNA variant scans (doi:10.7554/elife.80360).
